Source: PMC9709071

Assays:
DcR3 = DcR3 (UniProt O95407); assay: ELISA; receptor (DR3-Fc; DcR3) immobilised on Maxisorp plates, TL1A variant titrated in 3-fold dilutions, overnight 4 °C, detected with anti-human TL1A-biotin and streptavidin-HRP; concentrations normalised to TL1A trimer; triplicate
Recombinant DR3-Fc [1] = target: Recombinant DR3-Fc (UniProt Q93038); assay: as above
Recombinant DR3-Fc [2] = target: Recombinant DR3-Fc (UniProt Q93038); assay: ELISA; DR3-Fc immobilised non-specifically on Maxisorp plates (overnight, 4 °C), casein block; TL1A added in 3-fold dilutions, overnight 4 °C; bound TL1A detected with polyclonal rabbit anti-human TL1A-biotin and streptavidin-HRP; concentrations normalised to TL1A trimers; triplicate

Sequence of DcR3 (O95407 30-300): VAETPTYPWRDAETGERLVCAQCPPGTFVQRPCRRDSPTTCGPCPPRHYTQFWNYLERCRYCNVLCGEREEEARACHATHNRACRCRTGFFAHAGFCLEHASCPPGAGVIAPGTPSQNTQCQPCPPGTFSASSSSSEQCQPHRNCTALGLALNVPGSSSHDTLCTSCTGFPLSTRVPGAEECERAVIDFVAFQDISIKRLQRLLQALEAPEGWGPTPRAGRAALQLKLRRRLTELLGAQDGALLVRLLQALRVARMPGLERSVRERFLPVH
Sequence of Recombinant DR3-Fc (Q93038 25-199): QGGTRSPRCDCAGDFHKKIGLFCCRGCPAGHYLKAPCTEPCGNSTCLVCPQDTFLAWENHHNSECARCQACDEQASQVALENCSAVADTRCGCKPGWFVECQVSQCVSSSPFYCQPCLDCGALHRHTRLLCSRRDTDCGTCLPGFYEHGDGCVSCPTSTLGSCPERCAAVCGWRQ

Substance	EC50 (DcR3) [nM]	EC50 (Recombinant DR3-Fc [1]) [nM]	EC50 (Recombinant DR3-Fc [2]) [nM]
TL1W107 (D186Y) (from UniProt O95150 1-251) (ligand)	6.2	63.8	–
TL1W124 (N207k) (from UniProt O95150 1-251) (ligand)	15.4	110	–
TL1W115 (T192F) (from UniProt O95150 1-251) (ligand)	10.6	14.2	–
TL1W112 (P189F) (from UniProt O95150 1-251) (ligand)	66.1	202	–
TL1W93 (M158K) (from UniProt O95150 1-251) (ligand)	55.9	22.5	–
TL1W40 (L123S) (from UniProt O95150 1-251) (ligand)	16.4	30.7	–
TL1W130 (Y238R) (from UniProt O95150 1-251) (ligand)	16.9	–	–
Fc-His-TL1A (TL1W61) (complex)	–	–	10.2
TL1W133 (T239F) (from UniProt O95150 1-251) (ligand)	10.8	–	–
TL1W121 (S206E) (from UniProt O95150 1-251) (ligand)	17.2	105	–
TL1W128 (Y238S) (from UniProt O95150 1-251) (ligand)	10.5	–	–
TL1W85 (G124S) (from UniProt O95150 1-251) (ligand)	57.1	296	–
TL1W83 (E120K) (from UniProt O95150 1-251) (ligand)	2.2	–	–
TL1W82 (K111E) (from UniProt O95150 1-251) (ligand)	10.6	25.8	–
TL1W44 (P189K) (from UniProt O95150 1-251) (ligand)	59.1	168	–
TL1W105 (T185N) (from UniProt O95150 1-251) (ligand)	11.3	180	–
TL1W39 (L123G) (from UniProt O95150 1-251) (ligand)	38.2	184	–
TL1W90 (R156K) (from UniProt O95150 1-251) (ligand)	11	188	–
TL1W32 (Y188A) (from UniProt O95150 1-251) (ligand)	7.6	565	–
TL1W116 (T192K) (from UniProt O95150 1-251) (ligand)	23.3	77	–

Substance	EC50 (DcR3) [nM]	EC50 (Recombinant DR3-Fc [1]) [nM]	EC50 (Recombinant DR3-Fc [2]) [nM]
TL1W118 (S206A) (from UniProt O95150 1-251) (ligand)	8.8	41.7	–
TL1W24 (F209A) (from UniProt O95150 1-251) (ligand)	30.7	281	–
TL1W42 (F114A) (from UniProt O95150 1-251) (ligand)	11.4	77.7	–
TL1W33 (R103A) (from UniProt O95150 1-251) (ligand)	3.3	25	–
TL1W138 (K240D) (from UniProt O95150 1-251) (ligand)	59.5	–	–
TL1W126 (F209W) (from UniProt O95150 1-251) (ligand)	13.7	56.8	–
TL1W131 (Y238E) (from UniProt O95150 1-251) (ligand)	6.6	300	–
TL1W101 (S176N) (from UniProt O95150 1-251) (ligand)	20.4	–	–
TL1W139 (E241Q) (from UniProt O95150 1-251) (ligand)	17.3	–	–
TL1W28 (E190G) (from UniProt O95150 1-251) (ligand)	5.7	22.6	–
TL1W47 (E241A) (from UniProt O95150 1-251) (ligand)	1310	260	–
TL1W86 (G124K) (from UniProt O95150 1-251) (ligand)	2.9	–	–
TL1W123 (N207S) (from UniProt O95150 1-251) (ligand)	8.6	26.8	–
TL1W96 (R170E) (from UniProt O95150 1-251) (ligand)	16.4	87	–
TL1W117 (T192E) (from UniProt O95150 1-251) (ligand)	12	113	–
TL1W119 (S206F) (from UniProt O95150 1-251) (ligand)	8.1	87.5	–
TL1W29 (P189A) (from UniProt O95150 1-251) (ligand)	7.6	710	–
TL1W79 (R103E) (from UniProt O95150 1-251) (ligand)	7.1	204	–
TL1W37 (L123E) (from UniProt O95150 1-251) (ligand)	24.3	423	–
TL1W103 (T185A) (from UniProt O95150 1-251) (ligand)	11.5	57.9	–
